How the values were obtained:
[1] = molecular target: ZBP1 KH34 (Y396F) (UniProt Q9NZI8, Y396F); assay: NMR
[2] = molecular target: T1, KSRP KH4 (human, UniProt Q92945); assay: NMR
T1 sequence: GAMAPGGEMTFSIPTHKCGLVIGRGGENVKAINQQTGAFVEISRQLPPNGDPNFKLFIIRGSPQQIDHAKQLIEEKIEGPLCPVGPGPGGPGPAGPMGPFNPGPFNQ

[3] = molecular target: T2, KSRP KH1-4, KH1 mutant (human, UniProt Q92945 68-525, R162D;G163D); assay: BLI
T2 sequence: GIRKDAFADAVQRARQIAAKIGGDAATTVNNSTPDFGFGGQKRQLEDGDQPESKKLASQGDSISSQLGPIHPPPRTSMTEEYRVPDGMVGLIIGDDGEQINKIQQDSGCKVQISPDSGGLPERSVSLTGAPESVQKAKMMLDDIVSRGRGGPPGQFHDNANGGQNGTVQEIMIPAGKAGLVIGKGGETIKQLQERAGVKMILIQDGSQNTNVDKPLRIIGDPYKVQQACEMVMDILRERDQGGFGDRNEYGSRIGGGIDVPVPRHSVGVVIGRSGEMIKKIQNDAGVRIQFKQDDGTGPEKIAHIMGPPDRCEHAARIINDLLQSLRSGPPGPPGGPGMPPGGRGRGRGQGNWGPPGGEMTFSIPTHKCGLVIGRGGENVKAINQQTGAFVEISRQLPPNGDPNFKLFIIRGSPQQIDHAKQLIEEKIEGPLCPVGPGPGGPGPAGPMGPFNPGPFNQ

[4] = molecular target: T3, KSRP KH1-4, KH2 mutant (human, UniProt Q92945 68-525, K251D;G252D); assay: BLI
T3 sequence: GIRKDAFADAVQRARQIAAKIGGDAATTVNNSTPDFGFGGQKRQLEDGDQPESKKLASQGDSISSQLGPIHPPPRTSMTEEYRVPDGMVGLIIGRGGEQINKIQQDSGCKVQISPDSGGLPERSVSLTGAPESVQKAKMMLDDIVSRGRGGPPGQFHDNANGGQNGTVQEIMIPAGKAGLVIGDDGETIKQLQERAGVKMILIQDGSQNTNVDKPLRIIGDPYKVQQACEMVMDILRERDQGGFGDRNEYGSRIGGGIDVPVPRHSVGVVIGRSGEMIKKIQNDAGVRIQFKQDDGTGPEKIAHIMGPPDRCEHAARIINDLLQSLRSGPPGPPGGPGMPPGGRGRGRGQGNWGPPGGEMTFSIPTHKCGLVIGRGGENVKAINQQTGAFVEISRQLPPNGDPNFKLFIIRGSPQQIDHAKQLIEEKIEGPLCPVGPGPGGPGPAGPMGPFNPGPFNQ

[5] = molecular target: T4, KSRP KH1-4 WT (human, UniProt Q92945); assay: BLI
T4 sequence: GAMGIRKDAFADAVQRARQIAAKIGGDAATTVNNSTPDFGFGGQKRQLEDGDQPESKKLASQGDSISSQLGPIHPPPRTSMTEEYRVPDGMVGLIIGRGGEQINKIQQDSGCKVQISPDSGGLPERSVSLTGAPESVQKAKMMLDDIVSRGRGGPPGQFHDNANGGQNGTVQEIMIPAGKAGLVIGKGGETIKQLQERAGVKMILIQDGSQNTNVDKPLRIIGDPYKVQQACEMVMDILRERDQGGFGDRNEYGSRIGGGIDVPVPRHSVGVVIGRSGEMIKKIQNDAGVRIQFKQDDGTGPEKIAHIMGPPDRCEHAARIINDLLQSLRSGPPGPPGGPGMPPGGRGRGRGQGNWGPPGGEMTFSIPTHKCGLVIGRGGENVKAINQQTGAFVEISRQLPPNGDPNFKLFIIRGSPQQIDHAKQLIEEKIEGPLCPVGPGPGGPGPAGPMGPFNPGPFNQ

[6] = molecular target: T5, KSRP KH1-4, KH3 mutant (human, UniProt Q92945 68-525, R340D;S341D); assay: BLI
T5 sequence: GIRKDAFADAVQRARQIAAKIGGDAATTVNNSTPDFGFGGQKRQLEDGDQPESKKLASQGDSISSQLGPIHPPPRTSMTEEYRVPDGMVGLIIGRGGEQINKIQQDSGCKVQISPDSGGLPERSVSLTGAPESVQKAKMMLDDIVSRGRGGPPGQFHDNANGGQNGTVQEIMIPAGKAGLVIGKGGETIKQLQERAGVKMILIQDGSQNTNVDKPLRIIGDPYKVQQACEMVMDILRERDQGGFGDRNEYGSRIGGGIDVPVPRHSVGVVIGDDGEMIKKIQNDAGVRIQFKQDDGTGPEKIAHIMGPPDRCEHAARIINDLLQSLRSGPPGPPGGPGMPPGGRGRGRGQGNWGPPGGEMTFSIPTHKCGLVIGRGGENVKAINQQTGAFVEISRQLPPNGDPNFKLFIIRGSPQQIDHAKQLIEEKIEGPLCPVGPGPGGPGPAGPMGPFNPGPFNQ

[7] = molecular target: T6, KSRP KH1-4, KH4 mutant (human, UniProt Q92945 68-525, R442D;G443D); assay: BLI
T6 sequence: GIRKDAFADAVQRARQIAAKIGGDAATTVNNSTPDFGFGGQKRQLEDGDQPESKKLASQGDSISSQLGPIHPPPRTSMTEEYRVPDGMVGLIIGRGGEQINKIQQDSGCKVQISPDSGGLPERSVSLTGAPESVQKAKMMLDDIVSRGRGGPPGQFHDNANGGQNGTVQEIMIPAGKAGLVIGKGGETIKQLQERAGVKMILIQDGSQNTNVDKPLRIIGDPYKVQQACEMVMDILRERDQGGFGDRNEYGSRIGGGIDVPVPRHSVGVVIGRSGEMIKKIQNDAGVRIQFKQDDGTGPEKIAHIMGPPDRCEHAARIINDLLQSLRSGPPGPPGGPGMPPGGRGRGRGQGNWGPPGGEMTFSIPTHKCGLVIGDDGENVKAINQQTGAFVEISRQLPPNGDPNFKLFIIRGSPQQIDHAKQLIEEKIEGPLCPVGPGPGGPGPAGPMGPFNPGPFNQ

[8] = molecular target: T7, KSRP KH1 (human, UniProt Q92945); assay: NMR
T7 sequence: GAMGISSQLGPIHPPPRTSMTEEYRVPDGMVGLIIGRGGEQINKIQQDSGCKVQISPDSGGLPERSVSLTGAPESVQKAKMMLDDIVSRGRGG

[9] = molecular target: T8, KSRP KH2 (human, UniProt Q92945); assay: NMR
T8 sequence: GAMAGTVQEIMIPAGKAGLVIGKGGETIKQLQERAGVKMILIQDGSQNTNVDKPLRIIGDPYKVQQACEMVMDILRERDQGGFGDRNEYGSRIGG

[10] = molecular target: T9, KSRP KH3 (human, UniProt Q92945); assay: NMR
T9 sequence: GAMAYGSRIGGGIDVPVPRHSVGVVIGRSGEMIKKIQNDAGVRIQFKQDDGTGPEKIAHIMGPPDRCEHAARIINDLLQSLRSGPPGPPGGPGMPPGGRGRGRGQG

GCACACCC (ssRNA): binds [1].

UAGGG (ssRNA): binds [2].

In the case of GUGUGUUAUUAUUUAUUAUUUAUUUAUUAUUUAUUUAUUCAG (ssRNA) [TNFalpha BLI ARE 42-mer], the Kd [3] is reported as 7.3 ± 1.7 nM, the Kd [4] is reported as 43 ± 14 nM and the Kd [5] is reported as 3.6 ± 1.4 nM. The Kd [6] was 95 ± 19 nM and the Kd [7] was 50 ± 16 nM.

UUGGG (ssRNA): binds [8].

UUUAG (ssRNA): binds [9].

UGGGU (ssRNA): binds [10].

From PMC3413153
